Data: paper PMC12676778, “Long-tailed class I myosins rely on tail-mediated phosphoinositide recognition for specific membrane recruitment” (Cell Communication and Signaling : CCS, 2025)
“Also recorded” adds a separate entry of the source.

Tests used:
[1] = target: PI (unphosphorylated phosphatidylinositol) lipid vesicles; experiment: Fluorescence-based cosedimentation of myosin-1 tails with lipid vesicles containing PI; conditions: 500 nM tail, accessible phospholipid, read-out: KD, tail binding to PI
Experimental: (§1) Phospholipid binding assays were performed using commercially available lipid vesicles (PolyPIPosomes™, 200 nm diameter; Echelon Biosciences) composed of 95% PE + PC and 5% of the phosphoinositide of interest. Accessible phospholipid concentration was calculated as half of the total phospholipid content. Myosin-1 tail (500 nM) in co-sedimentation buffer (10 mM Tris, pH 7.5, 100 mM NaCl, 1 mM EGTA) was incubated with increasing concentrations of PolyPIPosomes™ (accessible PIP range: 10 nM to 10 mM) at room temperature for 30 min, followed by centrifugation at 25,000 g to separate bound and unbound fractions. Bound myosin-1 tail was quantified either by measuring fluorescence intensity of the supernatant (Jasco FP-6500 fluorimeter, excitation 514 nm) or by western blot of pellet and supernatant fractions using anti-GST antibody as indicated in the experiments. […] Microtubule binding assays employed 100 mM PIPES (pH 6.8), 2 mM MgCl2, 1 mM EGTA, 20 µM paclitaxel, and 1 mM GTP. […] Fluorescence intensities of pellet and supernatant fractions were quantified as described above. […]
(§2) Fig. 1 Myosin-1 tail binding to phosphoinositides. a Representative fluorescence spectra of supernatants from co-sedimentation assays with YFP-tagged myosin-1D tail and increasing concentrations of lipid vesicles containing PI(3,5)P₂. […]

[2] = target: PC, PS lipid vesicles; experiment: Cosedimentation of myosin-1 tails with lipid vesicles devoid of phosphoinositides; conditions: 500 nM tail; vesicles without phosphoinositide; read-out: KD, tail binding to PC, PS
Experimental: as §1, §2

[3] = target: PI(3)P lipid vesicles (PolyPIPosomes); experiment: Cosedimentation of myosin-1 tails with PI(3)P vesicles; conditions: 500 nM tail; vesicles with 5% phosphoinositide; read-out: KD, tail binding to PI(3)P
Experimental: as §1, §2

[4] = target: PI(4)P lipid vesicles (PolyPIPosomes); experiment: Cosedimentation of myosin-1 tails with PI(4)P vesicles; conditions: 500 nM tail; vesicles with 5% phosphoinositide; read-out: KD, tail binding to PI(4)P
Experimental: as §1, §2

[5] = target: PI(5)P lipid vesicles (PolyPIPosomes); experiment: Cosedimentation of myosin-1 tails with PI(5)P vesicles; conditions: 500 nM tail; vesicles with 5% phosphoinositide; read-out: KD, tail binding to PI(5)P
Experimental: as §1, §2

[6] = target: PI(3,4)P2 lipid vesicles (PolyPIPosomes); experiment: Cosedimentation of myosin-1 tails with PI(3,4)P2 vesicles; conditions: 500 nM tail; vesicles with 5% phosphoinositide; read-out: KD, tail binding to PI(3,4)P2
Experimental: as §1, §2

[7] = target: PI(3,4,5)P3 lipid vesicles (PolyPIPosomes); experiment: Cosedimentation of myosin-1 tails with PI(3,4,5)P3 vesicles; conditions: 500 nM tail; vesicles with 5% phosphoinositide; read-out: KD, tail binding to PI(3,4,5)P3
Experimental: as §1, §2

[8] = system: PI(3,4,5)P3 lipid vesicles; experiment: Competitive binding of myosin-1 tails to PI(3,4,5)P3 vesicles (western blot of supernatant and pellet)
Experimental: Phospholipid binding assays were performed using commercially available lipid vesicles (PolyPIPosomes™, 200 nm diameter; Echelon Biosciences) composed of 95% PE + PC and 5% of the phosphoinositide of interest. Accessible phospholipid concentration was calculated as half of the total phospholipid content. Myosin-1 tail (500 nM) in co-sedimentation buffer (10 mM Tris, pH 7.5, 100 mM NaCl, 1 mM EGTA) was incubated with increasing concentrations of PolyPIPosomes™ (accessible PIP range: 10 nM to 10 mM) at room temperature for 30 min, followed by centrifugation at 25,000 g to separate bound and unbound fractions. Bound myosin-1 tail was quantified either by measuring fluorescence intensity of the supernatant (Jasco FP-6500 fluorimeter, excitation 514 nm) or by western blot of pellet and supernatant fractions using anti-GST antibody as indicated in the experiments. […] Microtubule binding assays employed 100 mM PIPES (pH 6.8), 2 mM MgCl2, 1 mM EGTA, 20 µM paclitaxel, and 1 mM GTP. […] Fluorescence intensities of pellet and supernatant fractions were quantified as described above.
To gain deeper insight into the binding specificity of the myosin tails, we conducted competition experiments in which two tail constructs were simultaneously present in the PIP-binding assay, allowing us to assess their ability to compete for binding to the same lipid species. We performed these experiments using PI(3,4,5)P₃ (PIP₃) as an exemplary lipid, first in the absence and then in the presence of a second tail isoform. Two tail pairs were tested: those of myosin-1B and myosin-1D, and those of myosin-1C and myosin-1D (Figs. 3a, c). […] These findings establish myosin-1D as the dominant binder of PIP₃, capable of outcompeting myosin-1B and myosin-1C for membrane association.
Fig. 3 Competitive binding of myosin-1 tails to PI(3,4,5)P₃. a, c Western blots of supernatant and pellet fractions from lipid vesicles containing PI(3,4,5)P₃ following incubation with 2 µM myosin-1B tail (~ 70 kDa) (a) or myosin-1C tail (~ 70 kDa) (c) in competition with myosin-1D tail (~ 100 kDa). The total accessible PI(3,4,5)P₃ concentration was maintained at 2 µM. b, d Dashed boxes indicate the fraction of myosin-1 tails bound to lipid vesicles in the absence of the other myosin isoform. Orange bars denote the fraction of bound myosin in the presence of the competing myosin TEXT PRINTED IN THE PICTURE: (b) myosin-1D: % myosin bound to PI(3,4,5)P3: 90%; % myosin bound to PI(3,4,5)P3: 86% | (b) myosin-1B: % myosin bound to PI(3,4,5)P3: 71%; % myosin bound to PI(3,4,5)P3: 32% | (d) myosin-1D: % myosin bound to PI(3,4,5)P3: 94%; % myosin bound to PI(3,4,5)P3: 85% | (d) myosin-1C: % myosin bound to PI(3,4,5)P3: 32%; % myosin bound to PI(3,4,5)P3: 9%

[9] = system: isolated nuclei from Dictyostelium cells; experiment: Binding of YFP-tagged myosin tail constructs to isolated nuclei, confocal microscopy; design: species or system Dictyostelium discoideum; conditions: 1 µM tail construct, 30 min
[10] = system: microtubules and F-actin; experiment: TIRF microscopy of microtubule/F-actin cross-linking by myosin-1 tails; format: biochemical; conditions: 1 µM tail construct
[11] = target: PI(3,5)P2 lipid vesicles (PolyPIPosomes); experiment: Cosedimentation of myosin-1 tails with PI(3,5)P2 vesicles (fluorescence or immunoblot detection); conditions: 500 nM tail; vesicles with 5% phosphoinositide; read-out: KD, tail binding to PI(3,5)P2
Experimental: Phospholipid binding assays were performed using commercially available lipid vesicles (PolyPIPosomes™, 200 nm diameter; Echelon Biosciences) composed of 95% PE + PC and 5% of the phosphoinositide of interest. Accessible phospholipid concentration was calculated as half of the total phospholipid content. Myosin-1 tail (500 nM) in co-sedimentation buffer (10 mM Tris, pH 7.5, 100 mM NaCl, 1 mM EGTA) was incubated with increasing concentrations of PolyPIPosomes™ (accessible PIP range: 10 nM to 10 mM) at room temperature for 30 min, followed by centrifugation at 25,000 g to separate bound and unbound fractions. Bound myosin-1 tail was quantified either by measuring fluorescence intensity of the supernatant (Jasco FP-6500 fluorimeter, excitation 514 nm) or by western blot of pellet and supernatant fractions using anti-GST antibody as indicated in the experiments. […] Fluorescence intensities of pellet and supernatant fractions were quantified as described above. […]
as §2
Supplementary Fig. S2. Lipid dot blot assays and comparisons between fluorescence-based detection and immunoblot detection of myosin-1-PI(3,5)P2 interactions. […]

[12] = target: PI(4,5)P2 lipid vesicles (PolyPIPosomes); experiment: Cosedimentation of myosin-1 tails with PI(4,5)P2 vesicles; conditions: 500 nM tail; vesicles with 5% phosphoinositide; read-out: KD, tail binding to PI(4,5)P2
Experimental: as §1, §2

[13] = target: microtubules; design: method as in Rump et al., 2010; conditions: ref Rump et al., 2010; read-out: KD, tail binding to microtubules; cited from earlier work
[14] = system: microtubules; design: method as in PMID 21712373; conditions: read-out: Inhibition of the cold-induced depolymerization of microtubules IC50; cited from earlier work
[15] = in presence of competing myosin-1D tail, 2 µM each, PI(3,4,5)P3 2 µM
[16] = single tail 2 µM, absence of other isoform, accessible PI(3,4,5)P3 2 µM

B1: Myosin-1B-tail: Recombinant GST-/YFP-tagged tail construct of Dictyostelium discoideum myosin-1B (amino acids 717–1111) (protein)
chain: QRAQIAHMFKDKKERQRNSIDRKFTSDYIDFENQFGLQEAMQNAHKKERVVFADTVIKIDRRAKQKNYEMVLTDQALYFVEKSIKKKVLVHTLIRRVGLREIKGVSISTLSDNVIVFHLPEHDQVIENDKKTEIIIVLVEYFKAIGGGSLNVQFSDRINYTLKKGEQKEISFQKSEQCPTLVVKKGGKGLIGTIASGLPSSTDSTPKNYNPNSMSQASSRPAPQQSAGRGRGMPQGAGQPQPQQPQQQQRPMPQPQQGGGARPMPQPQQGGGARPMGAPQQGGAPQQGAGRQLPQPTQQGGAPGGRGAPMGRGAPGGGPAGAGGRPLPTVAKPAPQPSRPTAKALYDYDASSTDELSFKEGDIIFIVQKDNGGWTQGELKSGQKGWAPTNYLQYN
modifications: left off: GST, N-terminal, state not stated | YFP, C-terminal, kept
Kd [1]: 38.2 ± 4 µM
Kd [2]: > 100 µM
Kd [3]: 8.3 ± 1 µM
Kd [4]: 2.3 ± 0.4 µM
Kd [5]: 7.7 ± 0.6 µM
Kd [6]: 2.2 ± 0.4 µM
Kd [7]: 1.1 ± 0.2 µM
% myosin bound to PI(3,4,5)P3 [8, 15]: 32%
% myosin bound to PI(3,4,5)P3 [8, 16]: ~71%
association of YFP-tagged tail construct with isolated nuclei [9]: do not bind to nuclei; also recorded: did not associate with the nuclei
cross-linking of microtubules and actin filaments [10]: not observed

B2: Myosin-1C-tail: Recombinant GST-/YFP-tagged tail construct of Dictyostelium discoideum myosin-1C (protein)
chain: RYWHDMASRIKNAYRNYKAFQFECSNRIKNAFRNYKLYRQRCAQTIQGYFRAWKQASPFFDLRMQNEQLFQGRKERNRFSMISVRKYFGDYLDVRSQSYFLDAMAEGRNEDVIFSSKSQVMVHPILSANKLSPRFLIVTKQAIYLIKLKQKKNLATYLLDRRVPLAEVTSFSLSSLADNLLVIHTSTQFDVAVTTEFKTELVALINKQKGTTLAVNFGQSIQYFKKKGSNNTVTFLKDEMHKEIFLKKNQFHIASGLPASTTVAKVRKNPSQVSTPSKPIAKPVAKPMVAKPSGGSVIMKKPAPAAPPSGPPVMKKPAPTAPGGAPMMKKPAPAPGGAPMMKKPAPVPGGPAPGGSAIMKPAGGVSKPLPSPTGAPMMKKPAPTAPGGPAPAGAPTPMMKKPAGQPMMKPIAKPQPTPMKKPAAPPPQQYIALYEYDAMQPDELTFKENDVINLIKKVDADWWQGELVRTKQIGMLPSNYVQQI
modifications: left off: GST, end not stated, state not stated | YFP, end not stated, kept
notes: Recombinant GST-/YFP-tagged tail construct of Dictyostelium discoideum myosin-1C
Kd [1]: 5.4 ± 0.8 µM
Kd [2]: 31.5 ± 2.7 µM
Kd [3]: 4 ± 0.3 µM
Kd [4]: 0.4 ± 0.1 µM
Kd [5]: 0.5 ± 0.1 µM
Kd [11]: 0.6 ± 0.1 µM
Kd [12]: 1.1 ± 0.2 µM
Kd [7]: 2.5 ± 0.3 µM
% myosin bound to PI(3,4,5)P3 [8, 15]: 9%
% myosin bound to PI(3,4,5)P3 [8, 16]: ~32%
association of YFP-tagged tail construct with isolated nuclei [9]: do not bind to nuclei; also recorded: did not associate with the nuclei
cross-linking of microtubules and actin filaments [10]: cross-linking activity
Kd [13]: 0.08 ± 0.05 µM
IC50 [14]: ~0.002 µM
